Legend:
Assay in all cases: phage ELISA
[1] = target: T1, HCoV-HKU1 Spike/S1 Protein (HCoV-HKU1, UniProt Q0ZME7 13-756)
T1 construct: domain: Spike/S1; also called HKU1-HIS
T1 sequence: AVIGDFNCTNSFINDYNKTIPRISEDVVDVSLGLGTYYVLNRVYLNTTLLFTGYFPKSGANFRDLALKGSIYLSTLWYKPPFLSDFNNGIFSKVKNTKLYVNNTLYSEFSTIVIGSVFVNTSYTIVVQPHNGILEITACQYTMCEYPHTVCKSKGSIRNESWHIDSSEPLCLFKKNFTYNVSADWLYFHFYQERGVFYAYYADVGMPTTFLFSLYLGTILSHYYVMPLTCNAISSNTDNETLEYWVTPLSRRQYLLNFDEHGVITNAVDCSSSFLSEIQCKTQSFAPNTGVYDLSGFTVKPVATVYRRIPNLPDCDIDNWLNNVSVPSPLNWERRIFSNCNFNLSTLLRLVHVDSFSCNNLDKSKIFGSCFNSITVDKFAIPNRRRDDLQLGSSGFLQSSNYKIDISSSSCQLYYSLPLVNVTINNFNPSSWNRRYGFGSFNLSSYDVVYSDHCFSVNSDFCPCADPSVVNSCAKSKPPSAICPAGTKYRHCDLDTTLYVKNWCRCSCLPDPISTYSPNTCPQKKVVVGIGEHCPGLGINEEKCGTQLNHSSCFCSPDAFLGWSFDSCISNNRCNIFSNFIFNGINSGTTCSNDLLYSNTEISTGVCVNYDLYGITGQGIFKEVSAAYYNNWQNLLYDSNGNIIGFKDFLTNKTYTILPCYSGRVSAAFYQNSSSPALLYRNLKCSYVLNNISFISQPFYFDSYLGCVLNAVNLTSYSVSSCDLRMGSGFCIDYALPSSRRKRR

[2] = target: T2, HCoV-NL63 Spike/S1 Protein (HCoV-NL63, UniProt Q6Q1S2 19-717)
T2 construct: domain: Spike/S1; also called NL63-HIS
T2 sequence: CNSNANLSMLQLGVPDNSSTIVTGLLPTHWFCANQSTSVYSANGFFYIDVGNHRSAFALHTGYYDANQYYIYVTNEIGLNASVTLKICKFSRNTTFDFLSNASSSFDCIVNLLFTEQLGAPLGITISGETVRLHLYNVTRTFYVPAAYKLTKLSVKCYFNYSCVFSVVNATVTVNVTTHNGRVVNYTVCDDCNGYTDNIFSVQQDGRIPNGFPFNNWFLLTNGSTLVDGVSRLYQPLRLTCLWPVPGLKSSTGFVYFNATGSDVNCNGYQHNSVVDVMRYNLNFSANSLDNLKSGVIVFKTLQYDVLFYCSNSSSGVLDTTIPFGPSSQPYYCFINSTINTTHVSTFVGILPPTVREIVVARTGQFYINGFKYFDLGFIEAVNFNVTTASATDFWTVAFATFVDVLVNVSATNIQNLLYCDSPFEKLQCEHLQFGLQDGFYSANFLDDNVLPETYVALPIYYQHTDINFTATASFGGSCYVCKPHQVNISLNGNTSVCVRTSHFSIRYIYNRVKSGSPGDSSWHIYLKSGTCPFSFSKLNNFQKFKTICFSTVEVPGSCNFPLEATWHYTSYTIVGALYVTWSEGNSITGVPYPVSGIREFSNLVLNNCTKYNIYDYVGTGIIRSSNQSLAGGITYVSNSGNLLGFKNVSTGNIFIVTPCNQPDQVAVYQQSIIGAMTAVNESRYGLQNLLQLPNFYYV

HCoV-OC43 Spike Protein = target: T3, HCoV-OC43 Spike Protein (HCoV-OC43, UniProt P36334 14-1297)
T3 construct: also called OC43-HIS
T3 sequence: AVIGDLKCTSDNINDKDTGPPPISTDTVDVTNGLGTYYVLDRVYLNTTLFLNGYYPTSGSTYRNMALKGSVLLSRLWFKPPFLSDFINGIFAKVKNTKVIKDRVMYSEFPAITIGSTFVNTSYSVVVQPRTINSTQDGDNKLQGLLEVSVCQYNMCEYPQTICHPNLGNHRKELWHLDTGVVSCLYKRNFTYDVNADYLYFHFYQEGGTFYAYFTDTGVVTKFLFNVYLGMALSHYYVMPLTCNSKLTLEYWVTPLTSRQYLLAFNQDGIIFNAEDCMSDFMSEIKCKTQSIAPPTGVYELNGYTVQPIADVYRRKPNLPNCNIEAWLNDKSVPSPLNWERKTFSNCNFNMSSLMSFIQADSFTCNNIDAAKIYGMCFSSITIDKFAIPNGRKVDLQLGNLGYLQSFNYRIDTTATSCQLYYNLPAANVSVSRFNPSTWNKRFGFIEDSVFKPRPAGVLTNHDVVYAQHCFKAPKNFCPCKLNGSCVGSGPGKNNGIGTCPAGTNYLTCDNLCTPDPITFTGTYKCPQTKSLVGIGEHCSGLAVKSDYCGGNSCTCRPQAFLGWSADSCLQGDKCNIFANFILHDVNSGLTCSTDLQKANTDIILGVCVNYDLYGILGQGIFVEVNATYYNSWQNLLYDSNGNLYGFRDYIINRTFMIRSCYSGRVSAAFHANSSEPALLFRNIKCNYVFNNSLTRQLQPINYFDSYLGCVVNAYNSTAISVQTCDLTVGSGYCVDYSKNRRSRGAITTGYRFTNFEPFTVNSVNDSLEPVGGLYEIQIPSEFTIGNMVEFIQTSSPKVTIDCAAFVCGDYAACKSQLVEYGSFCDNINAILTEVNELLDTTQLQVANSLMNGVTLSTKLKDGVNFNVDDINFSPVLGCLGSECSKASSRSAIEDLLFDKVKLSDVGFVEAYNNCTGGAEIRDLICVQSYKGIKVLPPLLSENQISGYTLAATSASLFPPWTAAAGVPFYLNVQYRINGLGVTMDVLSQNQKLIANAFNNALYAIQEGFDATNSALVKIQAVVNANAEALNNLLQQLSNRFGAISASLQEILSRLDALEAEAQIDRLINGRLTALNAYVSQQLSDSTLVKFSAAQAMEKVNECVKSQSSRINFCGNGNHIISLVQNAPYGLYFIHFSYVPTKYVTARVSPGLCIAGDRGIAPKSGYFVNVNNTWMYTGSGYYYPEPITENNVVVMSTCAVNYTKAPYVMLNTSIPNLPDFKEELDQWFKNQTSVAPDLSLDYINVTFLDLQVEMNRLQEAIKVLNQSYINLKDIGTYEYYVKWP

[3] = target: T4, HCoV-229E Spike/S1 Protein (HCoV-229E, UniProt P15423 16-536)
T4 construct: domain: Spike/S1; also called 229E-HIS
T4 sequence: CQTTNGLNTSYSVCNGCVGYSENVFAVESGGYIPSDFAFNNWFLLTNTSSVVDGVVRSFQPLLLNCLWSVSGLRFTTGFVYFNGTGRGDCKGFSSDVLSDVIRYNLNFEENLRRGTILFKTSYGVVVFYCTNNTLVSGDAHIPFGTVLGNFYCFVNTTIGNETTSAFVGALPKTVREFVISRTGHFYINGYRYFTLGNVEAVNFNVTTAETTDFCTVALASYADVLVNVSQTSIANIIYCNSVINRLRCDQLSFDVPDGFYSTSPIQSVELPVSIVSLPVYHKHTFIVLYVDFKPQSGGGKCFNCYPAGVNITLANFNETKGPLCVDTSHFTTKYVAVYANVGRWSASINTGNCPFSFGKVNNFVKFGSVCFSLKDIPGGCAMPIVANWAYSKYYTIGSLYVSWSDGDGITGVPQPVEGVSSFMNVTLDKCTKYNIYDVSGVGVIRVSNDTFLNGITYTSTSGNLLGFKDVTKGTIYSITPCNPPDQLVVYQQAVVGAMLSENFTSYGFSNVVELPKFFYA

Measured: binding result

B1: phage clone #20 (scFv)
scFv: SYVLTQPPSASGTPGQRVTISCSGSSSNIGSNTVNWYQQLPGTAPKLLIYSNNQRPSGVPDRFSASKSGTSASLAISGFQSEDEADYYCAAWDDSLDGYVFGTGTKVTVLGSRGGGGSGGGGSGGGGSLEMAEVQLVQSGAEVKKPGESLKISCKGSGYSFPSYWIGWVRQMPGKGLEWMGIIYPGDSDTRYSPSFQGQVTISADKSISTAYLQWSSLKASDTAMYYCARGSYTYMGGSYDYWGQGTLVTVSSTSGQAGQ
no binding: all assays above

B2: phage clone #30 (scFv)
scFv: QSALTQPPSASGSPGQSVTISCTGTSSDVGGYDYVSWYQQHPGKAPKLMIYEVSKRPSGVSNRFSGSKSGNTASLTISGLQAEDEADYYCSSYTSSSTFPYVFGTGTKVTVLGSRGGGGSGGGGSGGGGSLEMAEVQLVESGGGLEQPGGSLRLSCAASGFTFSSYAMSWVRQAPGKGLEWVSAISASGNSTFYADSVKGRFTISRDNSKHTLDLQMNSLRADDTAVYYCARNSDVWGQGTLVTVSSTSGQAGQ
no binding: all assays above

B3: phage clone #19 (scFv)
scFv: QSALTQPASVSGSPGQSITISCTGTSSDVGGYNYVSWYQQHPGKVPKLMIYEVSNRPSGVSNRFSGSKSGNTASLTISGLQAEDEADYYCSSYTSGDTLVFGGGTKVTVLGSRGGGGSGGGGSGGGGSLEMAELQLVESGGGVVQPGRSPRLSCAASGFTFSNYPMHWVRQAPGKGLEWVAVISYDGNHKYYADSLEGRFSISRDNSKNTLYLQMNSLTAADTAVYYCARGGGMGGLDSWGQGTLVTVSSTSGQAGQ
no binding: all assays above

B4: phage clone #13 (scFv)
scFv: QSVLTQPPSASGTPGQRVTISCSGSSSNIGSNYVYWYQQLPGTAPKLLIYRNNQRPSGVPDRFSGSKSGTSASLAISGLRSEDEADYYCAAWDDSLSGPNYVFGTGTKVTVLGSRGGGGSGGGGSGGGGSLEMAQVQLVQSGAEVKKPGSSVKVSCKASGGTFSSYAISWVRQAPGQGLEWMGWISGYNGNTNYAQKLQGRVTMTTDTSTSTAYMELRSLRSDDTAVYYCARTGWSKGEKVTTWGEWFYVDYWGQGTLVTVSSTSGQAGQ
no binding: all assays above

Source: patent US20230141962A1 (published 2023)
